Consider one molecule from patent CN116789813A.

In assay [1] the target is 野生型金黄色葡萄球菌α-溶血素(wtHla) (Staphylococcus aureus (strain MRSA 252)). Nature of the assay: cell-based or functional assay.
Assay [2] shares this target. In words: ELISA, wtHla coated at 2μg/mL, anti-human IgG Fab-HRP detection. (In an ELISA, binding on a coated surface is turned into a signal by an enzyme label.)

B1: 全人源Hla单克隆抗体Hla-38 (antibody, V domains shown)
VH: QVQLLESGGGVVQPGRSLRLSCIVSGFDLNSFAMHWVRQPPGKGLEWVAVIWHDGSERFYAASVKGRFTISRDTSRNTLFLQMNSLRVEDTAVYYCAKSGDYYENSGYFGSWGQGALVTVSS
VL: ELVLTQSPATLSVSPGERATLSCRASQSVGNDLAWYQQKPGQAPRLLIYGASTRATGIPARFSGSGFGTEFTLTISSLQSEDFAVYYCQQYNNWWTFGQGTKVDIK
A word on the EC50: it is the concentration giving half of the maximal effect. A lower EC50 goes with a more potent agent. In the case of B1, in assay [1], the 保护率 (mice injected i.p. with 15μg wtHla pre-incubated with 2.5μg antibody) is less than 30%, the 保护率 (mice injected i.p. with 15μg wtHla pre-incubated with 5μg antibody) was less than 30%, the 保护率 (mice injected i.p. with 15μg wtHla pre-incubated with 10μg antibody) was 50% and the 小鼠生存率 (mice injected i.p. with 15μg wtHla pre-incubated with 20μg antibody) is greater than 80%. In assay [2], this molecule yielded an EC50 of 0.33 µg/mL.
